Reference: paper PMC4908395, “Conformational flexibility related to enzyme activity: evidence for a dynamic active-site gatekeeper function of Tyr^215 in Aerococcus viridans lactate oxidase” (Scientific Reports, 2016)
Substitutions are numbered along the chain they refer to. Names and notes keep the numbering of the source.

Key:
C[C@H](O)C(=O)O [1] = test: steady-state initial rates; type: biochemical, Aerococcus viridans; details: pH 6.5, 20 °C, air-saturated (250 μM O2), 50 mM potassium phosphate
C[C@H](O)C(=O)O [2] = test: purified protein; details: pH 6.5, 20 °C, air-saturated (250 μM O2), 50 mM potassium phosphate
[3] = target: T1, avLOX (Aerococcus viridans L-lactate oxidase) (Aerococcus viridans, UniProt Q44467); test: stopped-flow anaerobic FMN reduction, […] nm, hyperbolic fit; type: biochemical; details: pH 5.5, 20 °C, 50 mM potassium phosphate, read-out: Enzyme / Wild-type avLOX / Reaction pH / 5.5
T1 construct: wild type from Roche (grade 1, lyophilized); Y215 variants from plasmid pLO-1 in E. coli BL21 (DE3), no tag stated; missing residues 1-7 modeled for simulation only
T1 sequence (Q44467 1-374): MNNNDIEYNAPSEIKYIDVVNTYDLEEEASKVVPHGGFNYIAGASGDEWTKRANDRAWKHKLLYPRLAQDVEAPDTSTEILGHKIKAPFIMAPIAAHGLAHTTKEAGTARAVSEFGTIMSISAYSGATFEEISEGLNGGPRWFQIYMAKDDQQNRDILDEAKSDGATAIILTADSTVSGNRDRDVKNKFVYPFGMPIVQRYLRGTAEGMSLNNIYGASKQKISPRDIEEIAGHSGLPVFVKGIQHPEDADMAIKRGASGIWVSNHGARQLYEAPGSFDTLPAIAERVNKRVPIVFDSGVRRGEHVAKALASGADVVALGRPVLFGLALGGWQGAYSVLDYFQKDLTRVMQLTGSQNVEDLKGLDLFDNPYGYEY

purified protein = substrate: C[C@H](O)C(=O)O; test: purified protein; details: pH 6.5, 20 °C, air-saturated (250 μM O2), 50 mM potassium phosphate; remark: listed apart in the source
[4] = target: the molecule itself; test: crystal structure; hanging drop vapor diffusion, 20 °C; 10 mg/mL protein in 50 mM potassium phosphate pH 7.0 mixed with 30% polyethylene glycol, 50 mM Tris-HCl pH 8.0, 50 mM pyruvate; spacegroup P2_(1), 2.6 Å

With “avLOX (Aerococcus viridans L-lactate oxidase) (Aerococcus viridans ATCC 11563 = CCUG 4311; Y215F)” the Km (C[C@H](O)C(=O)O [1]) was 130 ± 10 µM and the kcat (C[C@H](O)C(=O)O [1]) was 22 ± 2 s⁻¹.

Molecule “avLOX (Aerococcus viridans L-lactate oxidase) (Aerococcus viridans ATCC 11563 = CCUG 4311; Y215H)” has a Km (C[C@H](O)C(=O)O [2]) of 520 ± 120 µM.

Molecule `C[C@H](O)C(=O)O` [L-lactate] has a Kd [3] of 3 ± 0.4 mM.

B1: avLOX (Aerococcus viridans L-lactate oxidase) (Aerococcus viridans ATCC 11563 = CCUG 4311) (protein)
chain: T1 sequence (Q44467 1-374)
Work on B1 yielded a Km (purified protein) of 500 ± 100 µM and a kcat (purified protein) of 88 ± 2 s⁻¹.

B2: Aerococcus viridans L-lactate oxidase Y215F variant (enzyme)
chain: T1 sequence (Q44467 1-374) with Y215F
notes: also called Y215F avLOX; avLOX Y215F mutant
In the case of B2, the “stoichiometry N” value [4] is reported as 4.
